In paper PMC5383425, “Differential CLE peptide perception by plant receptors implicated from structural and functional analyses of TDIF-TDR interactions” (PLoS ONE, 2017):
Square brackets hold non-standard residues; d marks the D form. Ends that are not written are not given here. Hyp = O=C(O)[C@@H]1C[C@@H](O)CN1

Columns and labels:
Test in all cases: ITC; 0.5–1 mM peptide titrated into 10–40 μM ecdTDR; 25°C; 10 mM sodium citrate, 100 mM NaCl, pH 5.5; fitted to one set of binding sites; MicroCal Auto-iTC200
Conditions in all cases: both partners purified
ecdTDR F161A mutant = molecular target: T1, ecdTDR F161A mutant (Arabidopsis thaliana, UniProt Q9FII5 30-642, F161A)
T1 construct: TDR/PXY of A. thaliana, extracellular domain, residues 30-642; source: High Five insect cells (baculovirus), secreted, purified as the wild type (Ni-NTA, size-exclusion chromatography)
T1 sequence (looked up): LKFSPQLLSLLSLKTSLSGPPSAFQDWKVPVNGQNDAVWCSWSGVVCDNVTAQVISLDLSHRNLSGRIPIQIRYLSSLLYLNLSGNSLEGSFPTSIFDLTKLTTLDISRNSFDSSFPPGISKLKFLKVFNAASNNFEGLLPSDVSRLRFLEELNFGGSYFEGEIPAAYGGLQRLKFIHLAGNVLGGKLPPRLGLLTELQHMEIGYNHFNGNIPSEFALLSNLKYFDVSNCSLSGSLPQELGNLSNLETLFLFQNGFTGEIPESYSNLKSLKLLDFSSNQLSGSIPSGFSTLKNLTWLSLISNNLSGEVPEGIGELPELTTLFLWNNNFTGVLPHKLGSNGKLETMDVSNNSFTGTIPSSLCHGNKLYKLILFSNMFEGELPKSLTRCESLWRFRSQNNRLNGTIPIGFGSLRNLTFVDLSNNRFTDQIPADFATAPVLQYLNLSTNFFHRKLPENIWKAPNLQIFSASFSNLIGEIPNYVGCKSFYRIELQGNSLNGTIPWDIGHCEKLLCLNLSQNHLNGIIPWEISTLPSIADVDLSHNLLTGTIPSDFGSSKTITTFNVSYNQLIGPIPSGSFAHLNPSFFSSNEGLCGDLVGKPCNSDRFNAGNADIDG

ecdTDR Q282A mutant = molecular target: T2, ecdTDR Q282A mutant (Arabidopsis thaliana, UniProt Q9FII5 30-642, Q282A)
T2 construct: TDR/PXY of A. thaliana, extracellular domain, residues 30-642; source: High Five insect cells (baculovirus), secreted, purified as the wild type (Ni-NTA, size-exclusion chromatography)
T2 sequence (looked up): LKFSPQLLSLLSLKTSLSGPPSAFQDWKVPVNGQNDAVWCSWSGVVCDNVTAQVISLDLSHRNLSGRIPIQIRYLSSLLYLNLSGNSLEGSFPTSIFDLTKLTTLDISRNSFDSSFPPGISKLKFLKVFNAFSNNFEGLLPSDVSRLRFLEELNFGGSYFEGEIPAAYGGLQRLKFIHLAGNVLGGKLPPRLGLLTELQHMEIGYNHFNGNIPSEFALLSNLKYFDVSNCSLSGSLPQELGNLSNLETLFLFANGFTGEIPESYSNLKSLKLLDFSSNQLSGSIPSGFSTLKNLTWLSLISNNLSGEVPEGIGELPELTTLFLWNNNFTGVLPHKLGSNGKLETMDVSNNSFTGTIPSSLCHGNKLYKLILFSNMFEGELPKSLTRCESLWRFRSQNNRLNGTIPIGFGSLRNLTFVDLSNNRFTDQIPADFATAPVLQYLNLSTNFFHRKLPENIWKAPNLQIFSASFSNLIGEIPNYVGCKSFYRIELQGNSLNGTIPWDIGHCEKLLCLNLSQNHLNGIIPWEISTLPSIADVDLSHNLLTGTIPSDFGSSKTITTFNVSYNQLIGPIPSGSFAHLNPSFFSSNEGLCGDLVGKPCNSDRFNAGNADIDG

[1] = molecular target: T3, ecdTDR Y253 alanine mutant (Arabidopsis thaliana, UniProt Q9FII5 30-642, alanine substitution of Y253)
T3 construct: TDR/PXY of A. thaliana, extracellular domain, residues 30-642; The text says only 'mutational studies' of Y253; source: High Five insect cells (baculovirus), secreted, purified as the wild type (Ni-NTA, size-exclusion chromatography)
T3 sequence (looked up): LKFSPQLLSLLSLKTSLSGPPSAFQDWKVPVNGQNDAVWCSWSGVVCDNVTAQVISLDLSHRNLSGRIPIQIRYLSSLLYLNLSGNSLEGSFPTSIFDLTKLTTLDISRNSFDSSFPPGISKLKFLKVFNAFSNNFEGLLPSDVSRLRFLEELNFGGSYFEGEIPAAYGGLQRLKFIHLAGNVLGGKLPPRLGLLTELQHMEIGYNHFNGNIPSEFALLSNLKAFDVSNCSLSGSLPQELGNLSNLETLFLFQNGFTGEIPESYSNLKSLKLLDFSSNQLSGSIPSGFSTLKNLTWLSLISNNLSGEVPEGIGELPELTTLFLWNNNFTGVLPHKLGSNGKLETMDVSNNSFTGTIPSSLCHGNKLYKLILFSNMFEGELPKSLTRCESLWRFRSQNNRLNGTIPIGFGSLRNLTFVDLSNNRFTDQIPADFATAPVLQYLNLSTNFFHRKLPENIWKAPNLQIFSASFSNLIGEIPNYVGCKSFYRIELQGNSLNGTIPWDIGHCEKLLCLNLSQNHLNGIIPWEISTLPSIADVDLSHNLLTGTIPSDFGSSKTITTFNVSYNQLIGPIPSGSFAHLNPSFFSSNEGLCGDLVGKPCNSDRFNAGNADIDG

Measured: binding result

B1: Tracheary Element Differentiation Inhibitory Factor (TDIF) peptide (peptide)
peptide: HEV[Hyp]SG[Hyp]NPISN
notes: TDIF, the 12-residue CLE peptide processed from CLE41 and CLE44 of A. thaliana; printed as HEV(Hyp)SG(Hyp)NPISN; numbers count on: the 12-residue peptide; CLE44 encodes the same peptide; also called wild type TDIF; wtTDIF; source: synthetic peptide (peptide 2.0)
binds: all assays above
